Source: patent US20260242823
Like-named read-outs stand apart in the source and are kept apart here.

B1: plasmin (protein)
chain: KVYLSECKTGNGKNYRGTMSKTKNGITCQKWSSTSPHRPRFSPATHPSEGLEENYCRNPDNDPQGPWCYTTDPEKRYDYCDILECEEECMHCSGENYDGKISKTMSGLECQAWDSQSPHAHGYIPSKFPNKNLKKNYCRNPDRELRPWCFTTDPNKRWELCDIPRCTTPPPSSGPTYQCLKGTGENYRGNVAVTVSGHTCQHWSAQTPHTHNRTPENFPCKNLDENYCRNPDGKRAPWCHTTNSQVRWEYCKIPSCDSSPVSTEQLAPTAPPELTPVVQDCYHGDGQSYRGTSSTTTTGKKCQSWSSMTPHRHQKTPENYPNAGLTMNYCRNPDADKGPWCFTTDPSVRWEYCNLKKCSGTEASVVAPPPVVLLPDVETPSEEDCMFGNGKGYRGKRATTVTGTPCQDWAAQEPHRHSIFTPETNPRAGLEKNYCRNPDGDVGGPWCYTTNPRKLYDYCDVPQCAAPSFDCGKPQVEPKKCPGRVVGGCVAHPHSWPWQVSLRTRFGMHFCGGTLISPEWVLTAAHCLEKSPRPSSYKVILGAHQEVNLEPHVQEIEVSRLFLEPTRKDIALLKLSSPAVITDKVIPACLPSPNYVVADRTECFITGWGETQGTFGAGLLKEAQLPVIENKVCNRYEFLNGRVQSTELCAGHLAGGTDSCQGDSGGPLVCFEKDKYILQGVTSWGLGCARPNKPGVYVRVSRFVTWIEGVMRNN

How the values were obtained:
wild-type FVIII [1] = tested on: wild-type FVIII
wild-type FVIII, sequence (chain, as listed by the source): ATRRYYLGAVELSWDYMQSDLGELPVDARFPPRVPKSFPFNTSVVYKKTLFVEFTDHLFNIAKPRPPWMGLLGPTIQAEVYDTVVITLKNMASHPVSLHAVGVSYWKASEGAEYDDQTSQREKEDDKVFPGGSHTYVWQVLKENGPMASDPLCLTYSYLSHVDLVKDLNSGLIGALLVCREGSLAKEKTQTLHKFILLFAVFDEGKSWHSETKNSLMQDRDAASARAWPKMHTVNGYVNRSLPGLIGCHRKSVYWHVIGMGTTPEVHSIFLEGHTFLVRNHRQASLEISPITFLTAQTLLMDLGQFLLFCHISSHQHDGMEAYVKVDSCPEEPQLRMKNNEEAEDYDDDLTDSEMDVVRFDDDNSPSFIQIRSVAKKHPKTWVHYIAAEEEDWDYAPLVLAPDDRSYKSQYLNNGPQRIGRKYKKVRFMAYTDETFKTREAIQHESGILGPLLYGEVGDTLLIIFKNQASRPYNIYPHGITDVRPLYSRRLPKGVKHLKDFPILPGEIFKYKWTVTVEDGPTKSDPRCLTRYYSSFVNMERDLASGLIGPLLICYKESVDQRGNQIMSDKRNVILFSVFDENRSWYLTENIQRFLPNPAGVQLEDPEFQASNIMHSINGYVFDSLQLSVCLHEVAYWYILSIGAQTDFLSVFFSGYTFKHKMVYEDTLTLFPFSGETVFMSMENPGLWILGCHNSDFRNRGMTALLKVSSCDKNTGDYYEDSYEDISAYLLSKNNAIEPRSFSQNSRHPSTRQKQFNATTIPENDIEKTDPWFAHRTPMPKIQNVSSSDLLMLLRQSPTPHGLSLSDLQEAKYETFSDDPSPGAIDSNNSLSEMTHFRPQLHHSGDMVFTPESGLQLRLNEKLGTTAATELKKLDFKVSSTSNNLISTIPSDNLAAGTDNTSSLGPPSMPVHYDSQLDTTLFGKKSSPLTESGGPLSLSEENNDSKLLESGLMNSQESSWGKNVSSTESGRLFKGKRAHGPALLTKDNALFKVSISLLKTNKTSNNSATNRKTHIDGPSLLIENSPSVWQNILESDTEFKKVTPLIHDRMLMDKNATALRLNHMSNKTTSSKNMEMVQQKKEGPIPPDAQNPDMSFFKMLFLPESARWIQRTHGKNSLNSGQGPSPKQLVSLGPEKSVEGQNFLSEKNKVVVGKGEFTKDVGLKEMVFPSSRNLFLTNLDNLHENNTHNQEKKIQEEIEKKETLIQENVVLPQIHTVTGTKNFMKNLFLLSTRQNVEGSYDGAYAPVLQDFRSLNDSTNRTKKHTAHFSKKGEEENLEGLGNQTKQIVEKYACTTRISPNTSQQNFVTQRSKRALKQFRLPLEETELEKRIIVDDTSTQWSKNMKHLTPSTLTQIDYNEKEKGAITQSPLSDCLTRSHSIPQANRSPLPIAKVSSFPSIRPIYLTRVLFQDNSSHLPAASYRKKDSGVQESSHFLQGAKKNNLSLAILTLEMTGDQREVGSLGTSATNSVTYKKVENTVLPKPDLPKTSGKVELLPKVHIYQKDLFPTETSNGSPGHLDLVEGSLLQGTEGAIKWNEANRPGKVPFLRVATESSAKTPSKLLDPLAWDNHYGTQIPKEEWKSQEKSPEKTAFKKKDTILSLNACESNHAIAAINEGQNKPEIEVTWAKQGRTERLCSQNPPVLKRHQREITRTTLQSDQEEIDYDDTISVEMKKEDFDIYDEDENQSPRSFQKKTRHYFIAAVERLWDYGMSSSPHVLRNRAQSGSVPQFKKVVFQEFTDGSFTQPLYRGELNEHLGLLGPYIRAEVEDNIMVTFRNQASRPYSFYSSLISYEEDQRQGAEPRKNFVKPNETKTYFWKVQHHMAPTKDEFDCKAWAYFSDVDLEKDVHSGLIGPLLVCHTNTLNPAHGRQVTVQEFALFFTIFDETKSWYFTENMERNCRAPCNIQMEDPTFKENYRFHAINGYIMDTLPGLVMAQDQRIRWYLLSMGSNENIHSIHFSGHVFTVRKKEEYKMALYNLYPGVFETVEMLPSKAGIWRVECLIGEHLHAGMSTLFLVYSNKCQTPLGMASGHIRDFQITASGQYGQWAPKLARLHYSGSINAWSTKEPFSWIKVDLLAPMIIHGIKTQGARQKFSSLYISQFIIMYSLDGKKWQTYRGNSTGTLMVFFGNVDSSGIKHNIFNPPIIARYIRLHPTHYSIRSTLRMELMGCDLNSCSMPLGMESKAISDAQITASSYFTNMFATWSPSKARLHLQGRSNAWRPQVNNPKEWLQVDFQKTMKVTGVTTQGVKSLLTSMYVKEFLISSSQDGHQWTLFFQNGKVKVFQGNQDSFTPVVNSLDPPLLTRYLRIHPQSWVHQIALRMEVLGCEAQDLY

FVIII-R336Q/R562Q [2] = tested on: FVIII-R336Q/R562Q
FVIII-R336Q/R562Q, sequence (chain, as listed by the source R336Q R562Q): as the sequence (chain, as listed by the source) above, with R336Q, R562Q counted along it

FVIII-R336Q/R562Q [3] = biological target: FVIII-R336Q/R562Q; remark: listed apart in the source
wild-type FVIII [4] = biological target: wild-type FVIII; remark: listed apart in the source

| Molecule | Western Blot analysis of cleavage fragments (wild-type FVIII [1]) | Western Blot analysis of cleavage fragments (FVIII-R336Q/R562Q [2]) | Western blot cleavage at R372 (wild-type FVIII [1]) | Western Blot analysis of cleavage fragments (FVIII-R336Q/R562Q [3]) | Western Blot analysis of cleavage fragments (wild-type FVIII [4]) |
| --- | --- | --- | --- | --- | --- |
| FIXa | all serine proteases cleaved at R336 or R562 in FVIII-WT | no such cleavage fragments were seen with FVIII-QQ |  |  |  |
| FXa | all serine proteases cleaved at R336 or R562 in FVIII-WT | no such cleavage fragments were seen with FVIII-QQ |  |  |  |
| activated protein C | all serine proteases cleaved at R336 or R562 in FVIII-WT | no such cleavage fragments were seen with FVIII-QQ |  |  |  |
| thrombin (IIa) | all serine proteases cleaved at R336 or R562 in FVIII-WT | no such cleavage fragments were seen with FVIII-QQ | thrombin (IIa) as well as multiple serine proteases can also cleave R372 of FVIII |  |  |
| B1 |  |  |  | no such cleavage fragments were seen with FVIII-QQ | all serine proteases cleaved at R336 or R562 in FVIII-WT |
